PMC11659886, “Bioinformatics-Facilitated Identification of Novel Bacterial Sulfoglycosidases That Hydrolyze 6-Sulfo-N-acetylglucosamine” (ACS Bio & Med Chem Au, 2024)

What was measured:
[1] = system: T1, CC(=O)N[C@H]1[C@H](Oc2ccc3c(C)cc(=O)oc3c2)O[C@H](COS(=O)(=O)O)[C@@H](O)[C@@H]1O; assay: fluorometric release of 4-methylumbelliferone, Michaelis-Menten fit; type: biochemical, Bacteroides thetaiotaomicron; details: pH 5.5, 25 °C, 25 mM Bis-tris propane, 25 mM citrate, 300 mM NaCl
T1 construct: residues 22-546, His6-tagged (pET23-Bt4394(22-546)-6His), expressed in E. coli BL21(DE3)
Description: (§1) fluorometric release of 4-methylumbelliferone, Michaelis-Menten fit on Bt4394

[2] = system: CC(=O)N[C@H]1[C@H](Oc2ccc3c(C)cc(=O)oc3c2)O[C@H](CO)[C@@H](O)[C@@H]1O; assay: as above; type: biochemical, Prevotella sp. CAG:5226; details: pH 6.0, 25 °C, 25 mM Bis-tris propane, 25 mM citrate, 300 mM NaCl
Description: (§2) fluorometric release of 4-methylumbelliferone, Michaelis-Menten fit on WG enzyme

[3] = system: CC(=O)N[C@H]1[C@H](Oc2ccc3c(C)cc(=O)oc3c2)O[C@H](COS(=O)(=O)O)[C@@H](O)[C@@H]1O; assay: as above; type: biochemical, Prevotella sp. CAG:5226; details: pH 6.0, 25 °C, 25 mM Bis-tris propane, 25 mM citrate, 300 mM NaCl
Description: as §2

[4] = system: CC(=O)N[C@H]1[C@H](Oc2ccc3c(C)cc(=O)oc3c2)O[C@H](COS(=O)(=O)O)[C@@H](O)[C@@H]1O; assay: purified protein; details: pH 6.0, 25 °C, 25 mM Bis-tris propane, 25 mM citrate, 300 mM NaCl
[5] = system: CC(=O)N[C@H]1[C@H](Oc2ccc3c(C)cc(=O)oc3c2)O[C@H](CO)[C@@H](O)[C@@H]1O; assay: purified protein; details: pH 6.0, 25 °C, 25 mM Bis-tris propane, 25 mM citrate, 300 mM NaCl
Description: fluorometric release of 4-methylumbelliferone, Michaelis-Menten fit on YG enzyme

[6] = substrate: CC(=O)N[C@H]1[C@H](Oc2ccc3c(C)cc(=O)oc3c2)O[C@H](CO)[C@@H](O)[C@@H]1O; assay: fluorometric release of 4-methylumbelliferone, Michaelis-Menten fit; type: biochemical, Bacteroides thetaiotaomicron; details: pH 5.5, 25 °C, 25 mM Bis-tris propane, 25 mM citrate, 300 mM NaCl
Description: as §1

[7] = substrate: CC(=O)N[C@H]1[C@H](Oc2ccc3c(C)cc(=O)oc3c2)O[C@H](COS(=O)(=O)O)[C@@H](O)[C@@H]1O; assay: as above; type: biochemical, Bacteroides thetaiotaomicron; details: pH 5.5, 25 °C, 25 mM Bis-tris propane, 25 mM citrate, 300 mM NaCl
Description: as §1

Q: For “Bt4394 (Bacteroides thetaiotaomicron VPI-5482; I432G/Q431W)”, which Km [1] is on record?
A: 194 ± 16 µM

Q: What about the kcat [1] of the same molecule?
A: 12 ± 0.3 s⁻¹

Q: What about the kcat/Km [1] of the same molecule?
A: 60000 ± 20000 M⁻¹ s⁻¹

Q: How did the Km [1] turn out when “Bt4394 (Bacteroides thetaiotaomicron VPI-5482; I432G/Q431Y)” was run?
A: 546 ± 37 µM

Q: And the kcat [1]?
A: 31.6 ± 0.7 s⁻¹

Q: What about the kcat/Km [1] of the same molecule?
A: 60000 ± 20000 M⁻¹ s⁻¹

Q: With WG enzyme (Prevotella sp. CAG:5226) as the molecule, how does the Km [2] read?
A: 2706 ± 344 µM

Q: What about the kcat [2] of the same molecule?
A: 11.6 ± 0.5 s⁻¹

Q: And the kcat/Km [2]?
A: 4000 ± 2000 M⁻¹ s⁻¹

Q: What about the Km [3] of the same molecule?
A: 5.1 ± 0.3 µM

Q: What about the kcat [3] of the same molecule?
A: 39.9 ± 0.6 s⁻¹

Q: What about the kcat/Km [3] of the same molecule?
A: 8e+06 ± 2e+06 M⁻¹ s⁻¹

Q: Which Km [4] does the source give for “WG enzyme (Prevotella sp. CAG:5226; N423D)” here?
A: 56 ± 6 µM

Q: And the kcat [4]?
A: 69 ± 4 s⁻¹

Q: What about the kcat/Km [4] of the same molecule?
A: 1.2e+06 ± 700000 M⁻¹ s⁻¹

Q: Which results are given for “WG enzyme (Prevotella sp. CAG:5226; R424A)”?
A: Km [4]: 47 ± 6 µM; kcat [4]: 62 ± 2 s⁻¹; kcat/Km [4]: 1.3e+06 ± 300000 M⁻¹ s⁻¹

Q: What does the source list for “WG enzyme (Prevotella sp. CAG:5226; W417A)”?
A: Km [4]: 17 ± 2 µM; kcat [4]: 45 ± 1 s⁻¹; kcat/Km [4]: 2.6e+06 ± 300000 M⁻¹ s⁻¹

Q: What does the source list for “YG enzyme (Alloprevotella sp. oral taxon 473 str. F0040)”?
A: Km [5]: 2209 ± 355 µM; kcat [5]: 11.7 ± 0.7 s⁻¹; kcat/Km [5]: 5000 ± 2000 M⁻¹ s⁻¹; Km [4]: 12 ± 1 µM; kcat [4]: 76 ± 2 s⁻¹; kcat/Km [4]: 6e+06 ± 2e+06 M⁻¹ s⁻¹

Q: What does the source list for “YG enzyme (Alloprevotella sp. oral taxon 473 str. F0040; N445D)”?
A: Km [4]: 130 ± 14 µM; kcat [4]: 98 ± 3 s⁻¹; kcat/Km [4]: 800000 ± 200000 M⁻¹ s⁻¹

Q: With “YG enzyme (Alloprevotella sp. oral taxon 473 str. F0040; R446A)” as the molecule, how does the Km [4] read?
A: 90 ± 9 µM

Q: And the kcat [4]?
A: 97 ± 3 s⁻¹

Q: And the kcat/Km [4]?
A: 1.1e+06 ± 300000 M⁻¹ s⁻¹

B1: Bt4394 (Bacteroides thetaiotaomicron VPI-5482) (protein)
chain: QEIALTPQPAHLTVKDGRFEFGNQLKAKVTPYQGDSIRMVFESFKKELQEATGIKVSSTQKEAKARIILDLNPQLPAEAYKLNVSKKQVRIEASRPAGFYYALQTLKQLMPRNVMAGVATSDHSQWSLPSVEIEDAPRFEWRGFMLDEGRHFFGKDEIKRVIDMMAIYKMNRFHWHLTEDQGWRIEIKKYPKLTETGAWRNSKVLAYGDVKPDGERYGGFYTQKDIKEIVAYAKKKFIEIIPEIDIPGHSQAAVAAYPEFLACDPRDKHEVWLQQGISTDVINVANPKAMQFAKEVIDELTELFPFNYIHLGGDECPTRKWQKNDECKKLLSEIGSSNFRDLQIYFYKQLKDYIATKPADQQRQLIFWNEVLHGNTSILGNDITIMAWIGANAAAKQAAKQGMNTILSPQIPYYINRKQSKLPTEPMSQGHGTETVEAVYNYQPLKDVDAALQPYYKGVQANFWTEWVTEPSVLEYLMLPRLAAVAEAGWTPQEKRNYEDFKERIRKDAELYDLKGWNYGKHIMK
notes: residues 22-546, His6-tagged (pET23-Bt4394(22-546)-6His), expressed in E. coli BL21(DE3)
Q: With B1 as the molecule, how does the Km [6] read?
A: 2183 ± 189 µM

Q: What about the kcat [6] of the same molecule?
A: 2.9 ± 0.1 s⁻¹

Q: What about the kcat/Km [6] of the same molecule?
A: 1300 ± 500 M⁻¹ s⁻¹

Q: And the Km [7]?
A: 39 ± 4 µM

Q: And the kcat [7]?
A: 25.8 ± 0.7 s⁻¹

Q: What about the kcat/Km [7] of the same molecule?
A: 700000 ± 200000 M⁻¹ s⁻¹
